25 sequences from the supplement of paper PMC9233669 can be followed below.

This sample holds only a part of the variants without activity.

One series deals with biotinyl-Phe-oxazolone. The series can be described thus: self-aminoacylation, catalytic enhancement (BFO) (fold over background); higher = more active; k-Seq, kA / k0A0; sequences stand for … in GGGAAUGGAUCCACAUCUACGAAUUC…UUCACUGCAGACUUGACGAAGCUG
A digest of the protocol:
(§1)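 Mutagenized RNA pools with a 21-nt variable region (0.43 μM) were reacted with each biotinyl-aminoacyl-oxazolone at 2–1250 μM for 90 minutes at room temperature, in 50 μL HEPES/NaCl/KCl/MgCl2/CaCl2 buffer containing 5% acetonitrile at pH 6.9–7.0. RNA captured on streptavidin was quantified by triplicate qPCR and by Illumina sequencing. The fraction reacted for each sequence was fit to a pseudo-first-order model with bootstrapping, and catalytic enhancement is the median kA divided by the uncatalyzed rate, taken as the low-activity peak of a bimodal Gaussian fit.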

Another series relates to biotinyl-Ile-oxazolone. The series can be described thus: self-aminoacylation, catalytic enhancement (BIO) (fold over background); higher = more active; k-Seq, kA / k0A0; sequences stand for … in GGGAAUGGAUCCACAUCUACGAAUUC…UUCACUGCAGACUUGACGAAGCUG
A digest of the protocol: as §1

The test system of another series is biotinyl-Met-oxazolone. The series can be described thus: self-aminoacylation, catalytic enhancement (BMO) (fold over background); higher = more active; k-Seq, kA / k0A0; sequences stand for … in GGGAAUGGAUCCACAUCUACGAAUUC…UUCACUGCAGACUUGACGAAGCUG
A digest of the protocol: as §1

The next series relates to biotinyl-Val-oxazolone. The series can be described thus: self-aminoacylation, catalytic enhancement (BVO) (fold over background); higher = more active; k-Seq, kA / k0A0; sequences stand for … in GGGAAUGGAUCCACAUCUACGAAUUC…UUCACUGCAGACUUGACGAAGCUG
A digest of the protocol: as §1

The subject of a further series is biotinyl-Leu-oxazolone. The series can be described thus: self-aminoacylation, catalytic enhancement (BLO) (fold over background); higher = more active; k-Seq, kA / k0A0; sequences stand for … in GGGAAUGGAUCCACAUCUACGAAUUC…UUCACUGCAGACUUGACGAAGCUG
A digest of the protocol:
as §1

The subject of the next series is biotinyl-Trp-oxazolone. The series can be described thus: self-aminoacylation, catalytic enhancement (BWO) (fold over background); higher = more active; k-Seq, kA / k0A0; sequences stand for … in GGGAAUGGAUCCACAUCUACGAAUUC…UUCACUGCAGACUUGACGAAGCUG
A digest of the protocol:
as §1

Take “CCAGACAUCAAGCAAUCGGUC [Fam1B.1 aminoacylation ribozyme variant]”: the self-aminoacylation was determined as 1.06 in the series on biotinyl-Phe-oxazolone; 0.911 in the series with biotinyl-Ile-oxazolone; 0.825 in the series on biotinyl-Met-oxazolone; 0.993 with biotinyl-Val-oxazolone; 0.896 in the series with biotinyl-Leu-oxazolone; 0.802 with biotinyl-Trp-oxazolone.

On to “AAGUUUGCUAAUAGUAGCACG [Fam3.1 aminoacylation ribozyme variant]”, for which the self-aminoacylation with biotinyl-Phe-oxazolone turned out to be 1.39; in the series with biotinyl-Ile-oxazolone, 0.814; with biotinyl-Met-oxazolone, 0.733; with biotinyl-Val-oxazolone it was 0.764; with biotinyl-Leu-oxazolone it was 0.619; in the series with biotinyl-Trp-oxazolone, 0.766.

“CUACUUCAAACAAUCGUACUG [Fam1A.1 aminoacylation ribozyme variant]”: the self-aminoacylation in the series on biotinyl-Phe-oxazolone came to 1.35; in the series on biotinyl-Ile-oxazolone it was 0.519; in the series on biotinyl-Met-oxazolone, 0.419; in the series with biotinyl-Val-oxazolone it was 0.533; in the series on biotinyl-Leu-oxazolone, 0.389; with biotinyl-Trp-oxazolone, 0.573.

On to “CCACAGUUCAAGCAAUCGUUC [Fam1B.1 aminoacylation ribozyme variant]”, for which the self-aminoacylation with biotinyl-Phe-oxazolone was 0.594; with biotinyl-Ile-oxazolone, 0.771; with biotinyl-Met-oxazolone, 0.742; with biotinyl-Val-oxazolone, 0.845; in the series with biotinyl-Leu-oxazolone it was 0.743; in the series on biotinyl-Trp-oxazolone it was 0.472.

Regarding “AUGACCCUGGUCGUCGAGUGA [Fam2.1 aminoacylation ribozyme variant]”, the self-aminoacylation is 4.65 in the series with biotinyl-Phe-oxazolone; 1.01 in the series with biotinyl-Ile-oxazolone; 1.25 with biotinyl-Met-oxazolone; 0.888 in the series with biotinyl-Val-oxazolone; 1.38 with biotinyl-Leu-oxazolone; 0.916 in the series with biotinyl-Trp-oxazolone.

With “AUUCACCUCGGUCUUCGGGUG [Fam2.2 aminoacylation ribozyme variant]”, the self-aminoacylation was 33 in the series with biotinyl-Phe-oxazolone; 3.77 in the series with biotinyl-Ile-oxazolone; 3.71 with biotinyl-Met-oxazolone; 4.01 in the series with biotinyl-Val-oxazolone; 6.72 in the series with biotinyl-Leu-oxazolone; 4.87 with biotinyl-Trp-oxazolone.

Regarding “AUUAACCUAGGUCAGCGGGUG [Fam2.2 aminoacylation ribozyme variant]”, the self-aminoacylation is 19 with biotinyl-Phe-oxazolone; 2.5 in the series on biotinyl-Ile-oxazolone; 2.59 in the series with biotinyl-Met-oxazolone; 2.12 with biotinyl-Val-oxazolone; 4.4 in the series with biotinyl-Leu-oxazolone; 2.72 in the series on biotinyl-Trp-oxazolone.

For the sequence “CUACUUCUAACAAUCGGCCUG [Fam1A.1 aminoacylation ribozyme variant]”, the self-aminoacylation in the series on biotinyl-Phe-oxazolone was 1.01; in the series on biotinyl-Ile-oxazolone it was 1.09; with biotinyl-Met-oxazolone, 0.997; in the series on biotinyl-Val-oxazolone it was 1.2; with biotinyl-Leu-oxazolone, 1.31; in the series with biotinyl-Trp-oxazolone, 1.05.

As to “CCACACUUCAAGGAAUCGGUA [Fam1B.1 aminoacylation ribozyme variant]”, the self-aminoacylation was found to be 0.499 in the series on biotinyl-Phe-oxazolone; 1.26 in the series on biotinyl-Ile-oxazolone; 1 with biotinyl-Met-oxazolone; 1.18 in the series with biotinyl-Val-oxazolone; 1.23 in the series with biotinyl-Leu-oxazolone; 0.902 in the series on biotinyl-Trp-oxazolone.

“AAGUCUGCUAAUAUUCGCAAG [Fam3.1 aminoacylation ribozyme variant]”: the self-aminoacylation with biotinyl-Phe-oxazolone was determined as 2.54; with biotinyl-Ile-oxazolone, 1.11; in the series on biotinyl-Met-oxazolone, 1.49; in the series with biotinyl-Val-oxazolone, 1.06; in the series on biotinyl-Leu-oxazolone it was 1.06; in the series on biotinyl-Trp-oxazolone it was 1.77.

“CAUCACUUCAAGCAAUCGGUC [Fam1B.1 aminoacylation ribozyme variant]”: the self-aminoacylation with biotinyl-Phe-oxazolone turned out to be 32.7; in the series with biotinyl-Ile-oxazolone, 1.17; in the series on biotinyl-Met-oxazolone, 1.09; in the series on biotinyl-Val-oxazolone it was 1.2; in the series on biotinyl-Leu-oxazolone, 1.47; in the series with biotinyl-Trp-oxazolone, 15.6.

With “AUUACUCUGGUCGUCGAGUGA [Fam2.1 aminoacylation ribozyme variant]”, the self-aminoacylation in the series on biotinyl-Phe-oxazolone is 0.488; with biotinyl-Ile-oxazolone it was 1.08; in the series on biotinyl-Met-oxazolone, 1.16; in the series with biotinyl-Val-oxazolone, 1.16; in the series on biotinyl-Leu-oxazolone, 1.31; in the series on biotinyl-Trp-oxazolone, 0.657.

As to “CCACACUUCAUGCAAUCGUUC [Fam1B.1 aminoacylation ribozyme variant]”, the self-aminoacylation came to 0.835 in the series with biotinyl-Phe-oxazolone; 0.737 in the series with biotinyl-Ile-oxazolone; 0.566 with biotinyl-Met-oxazolone; 0.699 in the series with biotinyl-Val-oxazolone; 0.513 in the series on biotinyl-Leu-oxazolone; 0.373 with biotinyl-Trp-oxazolone.

In the case of “AAAUUUGCUAAUAGUCGCAGG [Fam3.1 aminoacylation ribozyme variant]”, the self-aminoacylation in the series with biotinyl-Phe-oxazolone turned out to be 2.3; with biotinyl-Ile-oxazolone, 1.97; with biotinyl-Met-oxazolone it was 2.11; with biotinyl-Val-oxazolone, 1.79; with biotinyl-Leu-oxazolone, 2.47; in the series on biotinyl-Trp-oxazolone, 3.16.

With “CCACACUUCAAGCAAACGGUU [Fam1B.1 aminoacylation ribozyme variant]”, the self-aminoacylation in the series with biotinyl-Phe-oxazolone amounted to 1.41; in the series with biotinyl-Ile-oxazolone, 1.32; in the series with biotinyl-Met-oxazolone it was 1.25; with biotinyl-Val-oxazolone it was 1.59; in the series with biotinyl-Leu-oxazolone it was 1.34; with biotinyl-Trp-oxazolone it was 0.973.

Regarding “AUUACCCUCGUCAACGAGUGA [Fam2.1 aminoacylation ribozyme variant]”, the self-aminoacylation with biotinyl-Phe-oxazolone turned out to be 5.53; with biotinyl-Ile-oxazolone it was 1.89; in the series with biotinyl-Met-oxazolone, 3.05; in the series with biotinyl-Val-oxazolone it was 2.06; in the series with biotinyl-Leu-oxazolone, 3; in the series with biotinyl-Trp-oxazolone, 2.82.

Turning to “AUUCACAUAGGUCAACGGGUG [Fam2.2 aminoacylation ribozyme variant]”, the self-aminoacylation in the series on biotinyl-Phe-oxazolone amounted to 28.8; in the series with biotinyl-Ile-oxazolone it was 2.85; in the series with biotinyl-Met-oxazolone, 4.31; with biotinyl-Val-oxazolone, 2.81; in the series on biotinyl-Leu-oxazolone, 5.9; in the series on biotinyl-Trp-oxazolone, 4.39.

Consider “AUUACCCUGCUCAUCCAGUGA [Fam2.1 aminoacylation ribozyme variant]”, for which the self-aminoacylation in the series with biotinyl-Phe-oxazolone worked out at 34.2; with biotinyl-Ile-oxazolone, 3.06; in the series with biotinyl-Met-oxazolone it was 5.54; with biotinyl-Val-oxazolone it was 3.34; with biotinyl-Leu-oxazolone, 6.26; in the series with biotinyl-Trp-oxazolone, 7.43.

In the case of “AAGCUUGCUAAUGGUCGCAAG [Fam3.1 aminoacylation ribozyme variant]”, the self-aminoacylation with biotinyl-Phe-oxazolone came to 2.3; in the series with biotinyl-Ile-oxazolone, 1.77; with biotinyl-Met-oxazolone it was 2.83; with biotinyl-Val-oxazolone, 1.76; with biotinyl-Leu-oxazolone, 1.83; in the series with biotinyl-Trp-oxazolone, 3.95.

Consider “AUUACACUGGUCCUCGAGUGA [Fam2.1 aminoacylation ribozyme variant]”, for which the self-aminoacylation in the series with biotinyl-Phe-oxazolone is 23.4; in the series with biotinyl-Ile-oxazolone, 2.72; in the series on biotinyl-Met-oxazolone, 5.17; with biotinyl-Val-oxazolone, 2.32; in the series with biotinyl-Leu-oxazolone, 4.8; in the series on biotinyl-Trp-oxazolone, 5.79.

Consider “AUUCACCUAGCUCAUCGGAUG [Fam2.2 aminoacylation ribozyme variant]”, for which the self-aminoacylation with biotinyl-Phe-oxazolone amounted to 0.472; in the series with biotinyl-Ile-oxazolone, 0.779; in the series with biotinyl-Met-oxazolone, 0.609; in the series with biotinyl-Val-oxazolone, 0.82; in the series with biotinyl-Leu-oxazolone, 0.772; with biotinyl-Trp-oxazolone, 0.452.

Turning to “AUUAACCUGGUCAACGAGUGA [Fam2.1 aminoacylation ribozyme variant]”, the self-aminoacylation was 22.5 in the series on biotinyl-Phe-oxazolone; 2.78 with biotinyl-Ile-oxazolone; 5.37 with biotinyl-Met-oxazolone; 2.85 in the series on biotinyl-Val-oxazolone; 5.45 with biotinyl-Leu-oxazolone; 6.7 with biotinyl-Trp-oxazolone.

Turning to “CCAUACUUCAAGCAAGCGGUC [Fam1B.1 aminoacylation ribozyme variant]”, the self-aminoacylation in the series on biotinyl-Phe-oxazolone was found to be 0.737; with biotinyl-Ile-oxazolone, 1.09; in the series with biotinyl-Met-oxazolone it was 0.775; in the series with biotinyl-Val-oxazolone, 1.03; in the series with biotinyl-Leu-oxazolone, 0.875; in the series on biotinyl-Trp-oxazolone, 0.726.

Turning to “AAGAUUGCUCAUAGUCGCAAG [Fam3.1 aminoacylation ribozyme variant]”, the self-aminoacylation in the series with biotinyl-Phe-oxazolone came out at 1.91; in the series with biotinyl-Ile-oxazolone, 1.45; in the series on biotinyl-Met-oxazolone, 1.56; in the series on biotinyl-Val-oxazolone, 1.62; in the series with biotinyl-Leu-oxazolone, 1.95; in the series on biotinyl-Trp-oxazolone, 2.09.

For the sequence “AAACACCUAGGUCAUCGGGUG [Fam2.2 aminoacylation ribozyme variant]”, the self-aminoacylation in the series with biotinyl-Phe-oxazolone is 23.9; in the series with biotinyl-Ile-oxazolone it was 3.41; in the series on biotinyl-Met-oxazolone it was 2.46; in the series with biotinyl-Val-oxazolone, 3.09; in the series on biotinyl-Leu-oxazolone it was 3.04; with biotinyl-Trp-oxazolone, 4.7.
